This passage reports stoichiometry N results from publication PMC12661434.

In the assay the target is StayRose (His-tagged StayGold bearing 3-aminotyrosine at Y58) (Cytaeis uchidae). The assay can be described thus: SEC; Superdex 75 Increase 10/300 GL, 20 mM Hepes, 150 mM NaCl, pH 7.5, 0.8 ml/min; ~1 mg/ml (38 uM) protein loaded via a 0.5 ml loop. (In general: Size exclusion chromatography separates by hydrodynamic size, large species first.)

What is called stoichiometry N is the number of molecules, sites or subunits per partner or assembly. “StayRose (His-tagged StayGold bearing 3-aminotyrosine at Y58)”: the stoichiometry N came out at 2.
